Experimental data from patent publication US20180142018A1 (NOVIMMUNE, published 2018).

Legend:
[1] = target: T1, human CD19 (human, UniProt P15391 20-556); assay: FACS on human PBMC gated on CD20+ B lymphocytes, 30 and 3 µg/mL
T1 construct: whole, on cells; also called huCD19
T1 sequence (looked up): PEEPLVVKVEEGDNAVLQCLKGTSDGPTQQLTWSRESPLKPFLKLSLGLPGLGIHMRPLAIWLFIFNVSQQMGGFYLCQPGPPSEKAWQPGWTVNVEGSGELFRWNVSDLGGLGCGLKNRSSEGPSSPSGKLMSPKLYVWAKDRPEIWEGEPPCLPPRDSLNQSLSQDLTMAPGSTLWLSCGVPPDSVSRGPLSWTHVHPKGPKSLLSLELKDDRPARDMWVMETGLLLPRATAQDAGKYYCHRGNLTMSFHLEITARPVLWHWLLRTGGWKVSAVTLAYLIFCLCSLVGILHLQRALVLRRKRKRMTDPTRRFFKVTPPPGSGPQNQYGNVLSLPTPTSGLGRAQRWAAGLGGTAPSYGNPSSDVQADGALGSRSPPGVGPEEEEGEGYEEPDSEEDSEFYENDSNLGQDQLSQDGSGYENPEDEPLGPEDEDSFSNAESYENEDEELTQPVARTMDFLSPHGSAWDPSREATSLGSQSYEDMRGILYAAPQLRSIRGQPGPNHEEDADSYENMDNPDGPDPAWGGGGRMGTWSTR
Procedure: (§1) The ability of various anti-CD19 antibodies of the disclosure to bind various peripheral blood mononuclear cells (PBMC). Human and cynomolgus PBMC from frozen aliquots in citrate buffer were tested. […] The PBMC were labelled with anti-CD20-PE monoclonal antibody (mAb), anti-CD14-FITC mAb, and anti-CD3-PerCP mAb cross-reactive both to human and cynomolgus species. Cell surface bound hIgG1 were detected with a mouse anti-human IgG Fc-APC mAb. FACS gating was performed with the anti-CD20 mAb for the B lymphocyte population, with the anti-CD3 for the T lymphocyte population and with anti-CD14 for the monocyte population.

[2] = target: T2, cynomolgus CD19 (cynomolgus monkey, UniProt A0A2K5W8L9 20-557); assay: FACS on PBMC CD20+ B lymphocytes; human over cynomolgus, told of the group of anti-CD19 antibodies
T2 construct: whole, on cells; also called cynoCD19; cynomolgus monkey CD19
T2 sequence: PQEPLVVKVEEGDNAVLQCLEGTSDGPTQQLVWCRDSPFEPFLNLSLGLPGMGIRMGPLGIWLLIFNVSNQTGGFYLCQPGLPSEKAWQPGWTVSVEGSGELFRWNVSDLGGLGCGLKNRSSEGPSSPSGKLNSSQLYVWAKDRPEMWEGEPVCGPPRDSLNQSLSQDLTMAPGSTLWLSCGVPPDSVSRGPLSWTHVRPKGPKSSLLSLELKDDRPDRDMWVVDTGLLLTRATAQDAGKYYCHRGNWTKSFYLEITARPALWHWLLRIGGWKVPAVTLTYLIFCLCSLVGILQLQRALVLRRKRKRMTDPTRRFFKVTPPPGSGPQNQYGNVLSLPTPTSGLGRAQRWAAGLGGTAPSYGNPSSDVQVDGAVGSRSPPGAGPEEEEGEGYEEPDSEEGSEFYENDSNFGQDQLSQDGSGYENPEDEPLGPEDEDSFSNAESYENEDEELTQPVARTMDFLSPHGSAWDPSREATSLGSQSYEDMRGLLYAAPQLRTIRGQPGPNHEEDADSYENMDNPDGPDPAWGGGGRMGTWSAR
Procedure: as §1

[3] = target: T1, human CD19; assay: FACS on human B lymphocyte cell lines (Raji, Ramos, Nalm6, Su-DHL6, Su-DHL4, Mec2); binding lost on CD19-silenced Raji siRNA
Procedure: The ability of various anti-CD19 antibodies of the disclosure to bind various human B lymphocyte cell lines was evaluated. In particular, the human IgG1 5F5, 7F11, 9G8, F6, 7F1, and 10D8 anti-CD19 antibodies were evaluated for their abilities to bind (i) six human B lymphocyte cell lines: Raji, Ramos, Nalm6, Su-DHL6, Su-DHL4, and Mec2, (ii) a CD19 silenced B cell line: Raji siRNA; and a negative cell line (Jurkat). All incubations were prepared in FACS buffer (PBS, BSA 2%) at 4° C. Fc receptors on B cells were blocked with 10% mouse serum. Four doses of hIgG1 were tested: 10, 1, 0.1 and 0.01 μg/mL. Cell surface bound hIgG1 were detected with a mouse anti-human IgG Fc-PE mAb.

B1: F6 antibody (antibody, human IgG1, V domains shown)
VH: EVQLVQSGAEVKKPGESLKISCKGSGYSFTSYWIGWVRQMPGKGLEWMGIIYPGDSDTRYSPSFQGQVTISADKSISTAYLQWSSLKASDTAMYYCARVWYYDFWSGADAFDIWGQGTLVTVSS
VL: EIVMTQSPATLSVSPGERATLSCRASQSVSSNLAWYQQKPGQAPRLLIYGASTRATGIPARFSGSGSGTEFTLTISSLQSEDFAVYYCQQGSLEAPQTFGQGTKVEIK
notes: also called human IgG1 F6 anti-CD19 antibody
With B1 the binding result [1] was “binds” and the “fold higher binding on human than on cynomolgus PBMC” value (shortened to “fold higher binding on human than”) [2] was ≤ 10 fold.

B2: 10D8 antibody (antibody, human IgG1, V domains shown)
VH: QVQLVQSGAEVKKPGSSVKVSCKASGGTFSSYAISWVRQAPGQGLEWMGGIIPIFGTANYAQKFQGRVTITADESTSTAYMELSSLRSEDTAVYYCARDRGYDYVWGSYRYGAFDIWGQGTLVTVSS
VL: QSALTQPASVSGSPGQSITISCTGTSSDVGGYNYVSWYQQHPGKAPKLMIYEVSNRPSGVSNRFSGSKSGNTASLTISGLQAEDEADYYCSSYDVWVPHMVFGGGTKLTVL
notes: also called human IgG1 10D8 anti-CD19 antibody
B2: binds [1].

B3: 7F1 antibody (antibody, human IgG1, V domains shown)
VH: EVQLVQSGAEVKKPGESLKISCKGSGYSFTSYWIGWVRQMPGKGLEWMGIIYPGDSDTRYSPSFQGQVTISADKSISTAYLQWSSLKASDTAMYYCARGDYWTGFAYWGQGTLVTVSS
VL: QSVLTQPPSVSAAPGQKVTISCSGSSSNIGNNYVSWYQQLPGTAPKLLIYDNNKRPSGIPDRFSGSKSGTSATLGITGLQTGDEADYYCGTWDLGWNSVFGGGTKLTVL
notes: also called human IgG1 7F1 anti-CD19 antibody
B3: binds [1].

B4: 7F11 antibody (antibody, human IgG1, V domains shown)
VH: EVQLVQSGAEVKKPGESLKISCKGSGYSFTSYWIGWVRQMPGKGLEWMGIIYPGDSDTRYSPSFQGQVTISADKSISTAYLQWSSLKASDTAMYYCARGVSGIYNLHGFDIWGQGTLVTVSS
VL: DIQMTQSPSSLSASVGDRVTITCRASQSISSYLNWYQQKPGKAPKLLIYAASSLQSGVPSRFSGSGSGTDFTLTISSLQPEDFATYYCQQGMWDNPFTFGQGTKVEIK
notes: also called human IgG1 7F11 anti-CD19 antibody
In the case of B4, the binding result [1] is reported as “binds” and the “fold higher binding on human than” value [2] is reported as ≤ 10 fold.

B5: 9G8 antibody (antibody, human IgG1, V domains shown)
VH: EVQLVQSGAEVKKPGESLKISCKGSGYSFTSYWIGWVRQMPGKGLEWMGIIYPGDSDTRYSPSFQGQVTISADKSISTAYLQWSSLKASDTAMYYCARGVSGIYNLHGFDIWGQGTLVTVSS
VL: DIQMTQSPSSLSASVGDRVTITCRASQSISSYLNWYQQKPGKAPKLLIYAASSLQSGVPSRFSGSGSGTDFTLTISSLQPEDFATYYCQQGRFGSPFTFGQGTKVEIK
notes: also called human IgG1 9G8 anti-CD19 antibody
With B5 the binding result [1] was “binds” and the “fold higher binding on human than” value [2] was ≤ 10 fold.

B6: 5F5 antibody (antibody, human IgG1, V domains shown)
VH: EVQLVQSGAEVKKPGESLKISCKGSGYSFTSYWIGWVRQMPGKGLEWMGIIYPGDSDTRYSPSFQGQVTISADKSISTAYLQWSSLKASDTAMYYCARGISGIYNLHGFDIWGQGTLVTVSS
VL: DIQMTQSPSSLSASVGDRVTITCRASQSISSYLNWYQQKPGKAPKLLIYAASSLQSGVPSRFSGSGSGTDFTLTISSLQPEDFATYYCQQASLDSPLTFGQGTKVEIK
notes: also called human IgG1 5F5 anti-CD19 antibody
For B6, the binding result [3] was “binds” and the “fold higher binding on human than” value [2] was ≤ 10 fold.
